Data from patent US20240376151A1, “STAPLED PEPTIDES AND METHODS THEREOF” (FOG PHARMACEUTICALS, INC., priority 2022, published 2024).
Numbered stars: 1 amine (or outer) side, 2 acyl side, 3 side chain; on linkers, the order of the positions; unused ones are H or OH. Bridge positions count the residues as written; N and C are the ends. Ends that are not written are not given here. Phenylene(1,4-NHCOCH2)2 = O=C(C[*:1])Nc1ccc(NC(=O)C[*:2])cc1

Assays:
CDK2 = CDK2 (Homo sapiens, UniProt P24941); assay: Phage Library Screening with NGS, CDK2; assay type: binding; design: Full length CDK2 (residues 1-298) with an N-terminal GST-3C-6×his-TEV tag; GST-3C-6×his-TEV (N, cleaved yes); made in house; host or cells: Sf9 (Bac-to-Bac baculovirus); settings: for phage screen counts, Target Concentration 10: CDK2, target concentration 10; for phage screen counts, Target Concentration 30: CDK2, target concentration 30; for phage screen counts, Target Concentration 100: CDK2, target concentration 100; for phage screen counts, Target Concentration 300: CDK2, target concentration 300
PPIA = target: T1, PPIA (Homo sapiens, UniProt P62937); assay: Phage Library Screening with NGS, PPIA; assay type: binding
T1 construct: Full length PPIA (residues 1-165) with an N-terminal 6×his-yBBR-TEV tag; 6×his-yBBR-TEV (N); made in house; host or cells: E. coli BL21 (DE3) CodonPlus RIPL

[1] = CDK2, target concentration 1000, first column
[2] = CDK2, target concentration 1000, second column
[3] = target concentration 1000, first column
[4] = target concentration 1000, second column

T1 sequence (P62937 whole entry, the tested form may be a part): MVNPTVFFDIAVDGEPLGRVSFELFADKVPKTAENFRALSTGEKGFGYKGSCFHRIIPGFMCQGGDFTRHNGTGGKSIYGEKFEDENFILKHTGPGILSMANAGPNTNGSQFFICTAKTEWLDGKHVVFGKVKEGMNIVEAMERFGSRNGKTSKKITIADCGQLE

| Sequence | phage screen counts, Target Concentration 10 (CDK2) | phage screen counts, Target Concentration 30 (CDK2) | phage screen counts, Target Concentration 100 (CDK2) | phage screen counts, Target Concentration 300 (CDK2) | phage screen counts, Target Concentration 1000 (CDK2; [1]) | phage screen counts, Target Concentration 1000 (CDK2; [2]) | phage screen counts, Target Concentration 10 (PPIA) | phage screen counts, Target Concentration 30 (PPIA) | phage screen counts, Target Concentration 100 (PPIA) | phage screen counts, Target Concentration 300 (PPIA) | phage screen counts, Target Concentration 1000 (PPIA; [3]) | phage screen counts, Target Concentration 1000 (PPIA; [4]) |
| --- | --- | --- | --- | --- | --- | --- | --- | --- | --- | --- | --- | --- |
| CLDAFFACER (linker 1-8 via Phenylene(1,4-NHCOCH2)2 (inferred); not fully specified (C-terminus)) | 0 | 0 | 0 | 4 | 7 | 408 |  |  |  |  |  |  |
| CLSAFFMCSS (linker 1-8 via Phenylene(1,4-NHCOCH2)2 (inferred); not fully specified (C-terminus)) | 0 | 0 | 0 | 0 | 90 | 50 |  |  |  |  |  |  |
| CLSAFFSCTY (linker 1-8 via Phenylene(1,4-NHCOCH2)2 (inferred); not fully specified (C-terminus)) | 29 | 0 | 0 | 0 | 111 | 330 |  |  |  |  |  |  |
| DPARTDCHVAAYWCYHQ |  |  |  |  |  |  | 0 | 5 | 13 | 14 | 18 | 25 |
| DPARYSCHVAAYECILN |  |  |  |  |  |  | 0 | 0 | 17 | 14 | 41 | 27 |
| DPASYDCHVAAYFCNFA |  |  |  |  |  |  | 6 | 10 | 176 | 197 | 190 | 227 |
| DPATMNCHVAAYFCIVE |  |  |  |  |  |  | 0 | 0 | 10 | 13 | 10 | 19 |
| DPAWWECIVAALECSDR (linker 7-14 via Phenylene(1,4-NHCOCH2)2 (inferred)) | 0 | 0 | 0 | 62 | 76 | 90 |  |  |  |  |  |  |
| DPAWWHCSIAALECHTT (linker 7-14 via Phenylene(1,4-NHCOCH2)2 (inferred)) | 0 | 18 | 25 | 216 | 195 | 358 |  |  |  |  |  |  |
| DPAWWHCVIAALDCETQ (linker 7-14 via Phenylene(1,4-NHCOCH2)2 (inferred)) | 0 | 15 | 5 | 93 | 119 | 141 |  |  |  |  |  |  |
| DPAYYDCHIAAYFCRTQ |  |  |  |  |  |  | 16 | 62 | 77 | 106 | 93 | 131 |
| PDCHIAAWYCR |  |  |  |  |  |  | 0 | 0 | 0 | 0 | 11 | 10 |
| PDCHIASWFCS |  |  |  |  |  |  | 0 | 0 | 0 | 3 | 25 | 5 |
| PDCHIQAYICH |  |  |  |  |  |  | 0 | 0 | 0 | 4 | 6 | 35 |
| PDCHIRAYMCN |  |  |  |  |  |  | 0 | 0 | 0 | 0 | 20 | 26 |
| PDCHIRAYVCH (Ac-PDCHIRAYVCH-NH2; bridge 3-10; also: Cys-Cys staple, linker not named) |  |  |  |  |  |  | 0 | 0 | 1 | 8 | 11 | 120 |

| Sequence | phage screen counts, Target Concentration 10 (CDK2) | phage screen counts, Target Concentration 30 (CDK2) | phage screen counts, Target Concentration 100 (CDK2) | phage screen counts, Target Concentration 300 (CDK2) | phage screen counts, Target Concentration 1000 (CDK2; [1]) | phage screen counts, Target Concentration 1000 (CDK2; [2]) | phage screen counts, Target Concentration 10 (PPIA) | phage screen counts, Target Concentration 30 (PPIA) | phage screen counts, Target Concentration 100 (PPIA) | phage screen counts, Target Concentration 300 (PPIA) | phage screen counts, Target Concentration 1000 (PPIA; [3]) | phage screen counts, Target Concentration 1000 (PPIA; [4]) |
| --- | --- | --- | --- | --- | --- | --- | --- | --- | --- | --- | --- | --- |
| PDCHIYAFYCL |  |  |  |  |  |  | 0 | 0 | 1 | 5 | 8 | 18 |
| PDCHLNAYWCM |  |  |  |  |  |  | 0 | 0 | 1 | 47 | 47 | 115 |
| PDCHVAAWMCF |  |  |  |  |  |  | 0 | 0 | 0 | 8 | 16 | 26 |
| PDCHVAAYICY |  |  |  |  |  |  | 0 | 0 | 3 | 38 | 54 | 44 |
| PECHVEAYFCE |  |  |  |  |  |  | 0 | 0 | 0 | 0 | 24 | 22 |
| PFCHIEAYYCW |  |  |  |  |  |  | 0 | 0 | 0 | 14 | 46 | 22 |
| PHDCHVNAWYC |  |  |  |  |  |  | 0 | 0 | 0 | 26 | 21 | 45 |
| PNCHLYAWECY |  |  |  |  |  |  | 0 | 0 | 0 | 4 | 5 | 19 |
| PNCHVEAWYCI |  |  |  |  |  |  | 0 | 0 | 0 | 1 | 12 | 12 |
| PNCHVEAYFCM |  |  |  |  |  |  | 0 | 1 | 8 | 68 | 98 | 63 |
| PNCHVMAYWCW |  |  |  |  |  |  | 0 | 0 | 1 | 8 | 10 | 7 |
| PTCHIDAWVCY |  |  |  |  |  |  | 0 | 0 | 0 | 12 | 18 | 26 |
| PTCHIHAYHCY |  |  |  |  |  |  | 0 | 0 | 3 | 5 | 31 | 8 |
| PTCHVQAWYCW |  |  |  |  |  |  | 0 | 0 | 0 | 0 | 10 | 29 |
| PYDCHIAAWMC |  |  |  |  |  |  | 0 | 0 | 0 | 0 | 20 | 35 |
